Here are results for 4 molecules from patent publication US20170335007A1 (Xencor, published 2017).

Usually EC50 stands for the concentration needed to bring the measured effect to its halfway point. A low value points to higher potency in that assay. One may read the Kd as the equilibrium constant for the complex coming apart. Usually koff stands for the rate constant with which the complex falls apart. As a reminder, the kon is the second-order rate constant of association.

Assay [1] concerns the target T1, human CD39 expressed on cells (human, UniProt P49961 1-510).
T1 sequence: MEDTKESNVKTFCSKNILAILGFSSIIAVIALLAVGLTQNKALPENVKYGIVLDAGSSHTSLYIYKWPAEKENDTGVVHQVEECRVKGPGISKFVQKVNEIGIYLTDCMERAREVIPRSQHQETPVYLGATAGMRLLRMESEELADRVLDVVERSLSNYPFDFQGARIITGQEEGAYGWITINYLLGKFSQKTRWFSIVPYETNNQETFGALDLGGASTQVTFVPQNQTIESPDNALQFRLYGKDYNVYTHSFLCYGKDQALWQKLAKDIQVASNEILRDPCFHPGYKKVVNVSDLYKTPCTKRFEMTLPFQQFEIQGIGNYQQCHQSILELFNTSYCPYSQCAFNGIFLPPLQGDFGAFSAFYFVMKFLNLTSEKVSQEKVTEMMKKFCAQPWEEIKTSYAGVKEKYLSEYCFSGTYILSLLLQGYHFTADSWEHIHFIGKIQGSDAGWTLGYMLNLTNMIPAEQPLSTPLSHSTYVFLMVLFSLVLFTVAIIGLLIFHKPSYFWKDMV
As to the kind of experiment: cell-based or functional assay.

The target in assay [2] is T1, human CD39 expressed on cells. Nature of the assay: cell-based or functional assay. The source holds these as a separate data set.
For assay [3] the target is unchanged. Nature of the assay: cell-based or functional assay. The source holds these as a separate data set.
The target is the same in assay [4]. As to the kind of experiment: flow cytometry on JVM-13 cells (endogenous human CD39). On the procedure:
Binding of antibody was also assessed in a cell line that expresses endogenous human CD39 (e.g. the B-prolymphocytic leukemia cell line JVM-13). Thirty-five anti-CD39 antibodies as described in Example 2 were tested for their binding to JVM-13 cells. […] Median fluorescence intensities for each primary antibody concentration were used to derive a flow EC50/Kd using the one site—specific binding with Hill slope model in Prism (GraphPad Prism Software). Results are shown as Flow EC50 in Table 8.
In general terms: In flow cytometry, cells or beads pass a laser one at a time.

Assay [5] addresses T2, recombinant human CD39 (R&D Systems) (human, UniProt P49961 38-478).
T2 construct: bought; also called CD39 antigen (R&D Systems); ENTPD1
T2 sequence: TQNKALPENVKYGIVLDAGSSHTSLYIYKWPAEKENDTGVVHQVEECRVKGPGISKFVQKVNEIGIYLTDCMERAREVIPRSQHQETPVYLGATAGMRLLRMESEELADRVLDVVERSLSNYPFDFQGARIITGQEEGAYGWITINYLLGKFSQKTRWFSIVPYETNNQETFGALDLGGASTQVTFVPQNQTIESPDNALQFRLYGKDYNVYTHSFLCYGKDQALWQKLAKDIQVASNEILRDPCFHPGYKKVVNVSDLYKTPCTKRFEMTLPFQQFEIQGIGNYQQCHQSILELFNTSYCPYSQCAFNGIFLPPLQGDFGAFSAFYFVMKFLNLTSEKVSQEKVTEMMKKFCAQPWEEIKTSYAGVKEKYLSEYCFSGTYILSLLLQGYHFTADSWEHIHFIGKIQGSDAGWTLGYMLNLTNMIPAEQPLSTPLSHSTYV
Nature of the assay: BLI (Octet QK384); antibody on anti-mouse IgG Fc sensor, recombinant human CD39 in solution. On the procedure:
Additional binding assays were conducted. Affinity measurements of thirty-five purified anti-CD39 antibodies as described in Example 2 were carried out on the OctetQK384 sytem (ForteBio). After coating anti-mouse IgG Fc sensors with a purified anti-CD39 antibody, association and dissociation of recombinant human CD39 (R&D Systems) was monitored. Affinity (KD) and kinetic constants (ka and kd) were derived using ForteBio's software.

Assay [6] addresses T2, recombinant human CD39 (R&D Systems). Nature of the assay: SPR (ProteOn XPR36); antibody captured by anti-mouse antibody, CD39 in solution, 1:1 fit. On the procedure: (§1) Affinity measurements of four exemplary purified anti-CD39 antibodies (5-13A, 5-71A, 5-165C and 9-31A) were also carried on the ProteOn XPR36 (BioRad) using a GLM sensor chip. The running buffer contained 10 mM HEPES, 150 mM NaCl, 0.005% Tween-20 at pH 7.4. All data were collected at 25 degrees C. Anti-mouse capturing antibody was amine coupled at four densities on flow cells using standard s—NHS/EDC activation. A dilution series of […], 16.6, 5.5 and 1.85 nM CD39 antigen (R&D Systems) was tested for binding to the anti-CD39 antibody surfaces. The data were processed by subtracting the response from the inter-reference surfaces as well as the buffer blank injection. The processed response data from four density surfaces were globally fit to a simple 1:1 interaction model using Scrubber 2 (Biologic Software Pty Ltd).

Assay [7] shares this target. Nature of the assay: SPR (ProteOn XPR36); antibody captured by anti-mouse antibody, CD39 in solution, 1:1 fit; ProteOn XPR36 SPR, Table 9. On the procedure:
as §1

Changes are numbered by the printed parent chain.

B1: anti-CD39 monoclonal antibody 9-8B (antibody, V domains shown)
VH: QIQLVQSGPELKKPGETVKISCKASGYTFTHYGMNWVKQAPGKGLKWMGWINTYTGELTYADDFKGRFAFSLETSASTAYLQINNLKNEDTATYFCARRAYYRYDYVMDYWGQGTSVTVSS
VL: DIVMTQSQKFMSTSVGDRVSVTCKASHNVGTNVAWYQQKPGQSPKALIYSASYRYSGVPGRFTGSGSGTDFTLTISNVQSEDLAEYFCHQYNNYPYTFGGGTKLEIK
notes: purified mouse hybridoma antibody, IgG2a isotype; also called R21-9-8B; R29-9-8B
For B1, the “% Inhibition of ATPase Activity in ARH-77 cells (antibody at 1200 ng/mL)” value in assay [1] was found to be 36.5%. Moreover, in assay [2], the “% Inhibition of ATPase Activity in IM-9 cells (antibody at 1200 ng/mL)” value stood at 29.8%. In addition, the “% Inhibition of ATPase Activity in HUVEC cells (antibody at 900 ng/mL)” value (from here on “% Inhibition … (antibody at 900 ng/mL)”) in assay [3] was found to be 33.7%. Besides, the EC50 in assay [4] came to 0.26 nM. Further, in assay [5], the Kd came to 3.1 nM, the koff is 0.000848 s⁻¹ and the kon was 273000 M⁻¹ s⁻¹.

B2: anti-CD39 monoclonal antibody 5-13A (antibody, V domains shown)
VH: QVQLQQSGPELVKPGASVRISCKASGYTFTGYYVHWVKQRPGQGLEWIGWIYPGNVNTKYNEKFKAKATLTADKSSSTGYMQLSRLTSEDSAVYFCARSPYYGTTYYYTMDYWGQGTSVTVSS
VL: EIVLTQSPAFMAASPGEKVTITCSVSLIISSRNLHWYQQKSETSPKPWIYGTSNLASGVPVRFSGSGSGTSYSLTISSMEAEDAATYYCQQWSDYPLTFGSGTKLEIK
notes: purified mouse hybridoma antibody, IgG2a isotype; also called R21-5-13A; R29-5-13A
In the case of B2, the “% Inhibition of ATPase Activity in ARH-77 cells (antibody at 1200 ng/mL)” value in assay [1] was -6.2%. Moreover, in assay [2], the “% Inhibition of ATPase Activity in IM-9 cells (antibody at 1200 ng/mL)” value was 0.8%. Moreover, the “% Inhibition … (antibody at 900 ng/mL)” value in assay [3] was -4.4%. Besides, in assay [4], the EC50 came out at 0.18 nM. In addition, in assay [6], the Kd is 1.16 nM, the koff is 0.000221 s⁻¹ and the kon is 191000 M⁻¹ s⁻¹. In assay [5], the Kd is 1.52 nM, the koff amounted to 0.000159 s⁻¹ and the kon came to 105000 M⁻¹ s⁻¹.

B3: anti-CD39 monoclonal antibody 5-165C (antibody, V domains shown)
VH: EVQLVESGGDLVKPGGSLKLSCAAFGFTFSRYGMSWVRQTPDKRLEWVATITSGGIYTYYPDSVKGRFTISRDNAKNTLYLQMSSLKSEETAMYYCARHGQFGDYYGMDYWGQGTSVTVSS
VL: DVVMTQTPLSLPVSLGDQASISCRSSQSLLHSNGNTYLHWYLQKPGQSPKLLIYKVSNRFSGVPDRFSGSGSGTDFTLKISRVEAEDLGVYFCSQSTHVPYTFGGGTKLEIK
notes: purified mouse hybridoma antibody, IgG2a isotype; also called R21-5-165C; R29-5-165C
Consider B3, for which the “% Inhibition of ATPase Activity in ARH-77 cells (antibody at 1200 ng/mL)” value in assay [1] is -2.5%. Besides, the “% Inhibition of ATPase Activity in IM-9 cells (antibody at 1200 ng/mL)” value in assay [2] was -0.1%. The “% Inhibition … (antibody at 900 ng/mL)” value in assay [3] is -9.8%. The EC50 in assay [4] is 0.11 nM. Also, in assay [5], the equilibrium dissociation constant (Kd) was found to be 2.53 nM, the koff stood at 0.000196 s⁻¹ and the kon turned out to be 77400 M⁻¹ s⁻¹. Also, in assay [7], the Kd is 1.25 nM, the koff amounted to 0.000109 s⁻¹ and the kon amounted to 87500 M⁻¹ s⁻¹.

B4: anti-CD39 monoclonal antibody 5-71A (antibody, V domains shown)
VH: DVQLVESGGGLVQPGGSRKLSCAASGFTFSSFGMHWVRQAPEKGLELVAYISSGSTIRYYSDTVKGRFTISRDNPKNTLFLQMTSLRSEDTAMYYCARFLYEGFRYGMDYWGQGTSVTVSS
VL: B3 VL with V3L, L29I, L30V, H39E, V90I, F92Y, S94F, S96G, T97S, Y101N
notes: purified mouse hybridoma antibody, IgG2a isotype; also called R21-5-71A; R29-5-71A
For the molecule B4, the “% Inhibition of ATPase Activity in ARH-77 cells (antibody at 1200 ng/mL)” value in assay [1] is 3.6%. The response in assay [4] was half-maximal at 0.09 nM (EC50). Besides, in assay [6], the equilibrium dissociation constant (Kd) was 0.09 nM, the koff stood at 1.4e-05 s⁻¹ and the kon was found to be 153000 M⁻¹ s⁻¹. In assay [5], the Kd was 0.73 nM, the koff turned out to be 5.22e-05 s⁻¹ and the association rate constant (kon) was found to be 71100 M⁻¹ s⁻¹.
